The text below walks through data of article PMC2862297 (Journal of molecular biology, 2010).

The data set concerns the molecule itself. The data set is described as follows: cryo-EM structure.

What is called stoichiometry N is the number of molecules, sites or subunits per partner or assembly.

B1: LTag108-627 deletion mutant of SV40 large T antigen (domain or fragment)
chain: EMPSSDDEATADSQHSTPPKKKRKVEDPKDFPSELLSFLSHAVFSNRTLACFAIYTTKEKAALLYKKIMEKYSVTFISRHNSYNHNILFFLTPHRHRVSAINNYAQKLCTFSFLICKGVNKEYLMYSALTRDPFSVIEESLPGGLKEHDFNPEEAEETKQVSWKLVTEYAMETKCDDVLLLLGMYLEFQYSFEMCLKCIKKEQPSHYKYHEKHYANAAIFADSKNQKTICQQAVDTVLAKKRVDSLQLTREQMLTNRFNDLLDRMDIMFGSTGSADIEEWMAGVAWLHCLLPKMDSVVYDFLKCMVYNIPKKRYWLFKGPIDSGKTTLAAALLELCGGKALNVNLPLDRLNFELGVAIDQFLVVFEDVKGTGGESRDLPSGQGINNLDNLRDYLDGSVKVNLEKKHLNKRTQIFPPGIVTMNEYSVPKTLQARFVKQIDFRPKDYLKHCLERSEFLLEKRIIQSGIALLLMLIWYRPVAEFAQSIQSRIVEWKERLDKEFSLSVYQKMKFNVAMGIGVLD
On to B1, for which the “stoichiometry N” value turned out to be 12.
